Test [1] deals with T1, RAGE Fc chimera (Homo sapiens, UniProt Q15109). Description: Far-Western dot blot: binding of RAGE to spotted proteins ± GM-0111. More on the design: purchased R&D Systems Inc. (Minneapolis, MN). Particulars: 1 μg spotted protein (0.5 μg Aβ1–42). The procedure: (§1) All statistics were performed using Graph Pad Prism 6 (GraphPad Software, La Jolla, CA). Data are represented as mean± SEM of results. […] Two-way analysis of variances (ANOVAs) were performed with Dunnett’s multiple comparison tests. […] Kruskal-Wallis tests with Dunn’s multiple comparison tests were used to analyze binding by Far-Western dot blotting (see figure legends 3 and 6 for details on multiple comparison tests). […] To obtain dissociation constants (Kd), half-maximal inhibitory concentrations (IC50), and maximum absorbance values, BSA was subtracted as background and values were fitted to a curve of nonlinear regression.
T1 sequence (Q15109 with tags, fused parts or gaps limits assumed): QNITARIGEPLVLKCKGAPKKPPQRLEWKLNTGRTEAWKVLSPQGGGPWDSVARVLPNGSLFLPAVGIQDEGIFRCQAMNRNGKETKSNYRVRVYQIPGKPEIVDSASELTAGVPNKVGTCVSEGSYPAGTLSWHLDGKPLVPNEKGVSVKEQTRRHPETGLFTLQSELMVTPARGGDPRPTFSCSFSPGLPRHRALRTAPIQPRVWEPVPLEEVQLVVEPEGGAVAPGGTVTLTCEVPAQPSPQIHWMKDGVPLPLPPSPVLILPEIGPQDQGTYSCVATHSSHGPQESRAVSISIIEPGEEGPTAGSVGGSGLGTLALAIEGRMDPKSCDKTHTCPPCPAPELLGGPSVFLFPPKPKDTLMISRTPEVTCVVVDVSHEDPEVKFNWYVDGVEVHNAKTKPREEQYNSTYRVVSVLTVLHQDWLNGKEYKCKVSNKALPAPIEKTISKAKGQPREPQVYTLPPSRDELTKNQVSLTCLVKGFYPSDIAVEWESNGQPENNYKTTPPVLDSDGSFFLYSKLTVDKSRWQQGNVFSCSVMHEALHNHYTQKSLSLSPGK

The target in test [2] is T2, Aβ1–42 (Homo sapiens, UniProt P05067).
T2 construct: Amyloid beta 1–42 (Aβ1–42), a known RAGE ligand; purchased Bachem (Torrance, CA)
As to the kind of experiment: Far-Western dot blot: binding of Aβ1–42 to spotted neutrophil proteins. The settings on record: Aβ1–42 […] (56 nM) with protease inhibitor cocktail; 1 μg spotted protein. On the procedure: After spotting, membranes were rinsed with ultrapure water, and Ponceau S (Sigma Aldrich) was used to stain for spotted proteins. Ponceau S was rinsed off with ultrapure water, and membrane blots were blocked for 2 h at room temperature in PBST containing 3% BSA. […] Blots were washed three times with PBST for 10 min, and then incubated with either rabbit anti-RAGE primary antibody (0.8μg/ml) or mouse anti-APP/Aβ (0.25μg/ml) for 2 h at room temperature. Blots were washed three times with PBST for 10 min, and then incubated with donkey anti-rabbit or donkey anti-mouse secondary antibodies at 0.04μg/ml for 45 min at room temperature. Blots were washed three times with PBST. Enhanced chemiluminescent or SuperSignal West femto maximum sensitivity substrates (Pierce) were used to develop blots. Mean dot densities were quantified and normalized to ponceau S dot densities using Image J software (National Institutes of Health (NIH), Bethesda, MD).
Blots were incubated with rocking overnight at 4°C.
as §1

Test [3] deals with T2, Aβ1–42. Description: ELISA: binding of Aβ1–42 to coated neutrophil proteins. The settings on record: for Log binding (Aβ1–42): 0.5 μg/well coated protein, with protease inhibitor cocktail, log OD 492 nm, mean ± SEM, n = 3; for maximum absorbance value for Aβ1–42 binding: ELISA with protease inhibitors, BSA subtracted, nonlinear regression fit. The procedure: (§2) The plates were washed three times with PBS containing 0.05% tween (PBST), and then blocked in PBST containing 3% bovine serum albumin (BSA). Indicated proteins were added to the plate in 50 μL PBST containing 0.1% BSA and incubated at 37°C for 70 mins. Wells were washed four times with PBST, and then incubated with 50 μL of goat anti-RAGE primary antibody (0.5 μg/ml) or mouse anti-APP/Aβ antibody (0.5 μg/ml-1 μg/ml) for 1 h. After washing the wells four times with PBST, 50 μL of rabbit anti-goat at 0.16 μg/ml or donkey anti-mouse at 0.04–0.08 μg/ml secondary antibodies were added for 1 h at room temperature.
as §1
For orientation: An ELISA detects its analyte on a solid surface through an enzyme-linked reagent.

Test [4] deals with T1, RAGE Fc chimera. As to the kind of experiment: ELISA: binding of RAGE to coated neutrophil proteins. More on the design: purchased R&D Systems Inc. (Minneapolis, MN). The settings on record: for maximum absorbance value for RAGE binding: ELISA, BSA subtracted as background, nonlinear regression fit; for Log binding (RAGE): wells coated 0.5 μg/well protein, log-transformed OD 492 nm, mean ± SEM. On the procedure: as §2
Goat anti-RAGE primary antibody at 0.5 μg/ml was used to detect bound RAGE.
as §1

The target in another test is T3, Aβ1–42 binding to RAGE (Homo sapiens, UniProt Q15109).
T3 construct: purchased R&D Systems Inc. (RAGE Fc chimera); Bachem (Aβ1–42)
T3 sequence (Q15109 with tags, fused parts or gaps limits assumed): as above
Description: ELISA: competitive inhibition of Aβ1–42 binding to RAGE by neutrophil proteins added simultaneously. On the procedure:
as §2, §1

In test [5] the target is T1, RAGE Fc chimera. Description: ELISA: Aβ1–42 binding to RAGE after pre-incubation of Aβ1–42 with neutrophil proteins. More on the design: purchased R&D Systems Inc. (RAGE Fc chimera); Bachem (Aβ1–42). The procedure: as §2
In this set of experiments, the maxisorp plates were coated with RAGE Fc chimera (0.5 μg/well, 83.3 nM) overnight at 4°C.
as §1

As usually defined, the IC50 is the midpoint of a concentration-inhibition curve. One may read the Kd as the free concentration of one partner at which half of the binding sites on the other are occupied at equilibrium, for simple one-to-one binding.

Regarding “bovine serum albumin [BSA, reference compound]”, the “binding of RAGE (far-Western dot blot)” value at RAGE Fc chimera [1] is “did not detect visible binding”. Besides, the “binding of Aβ1–42 (far-Western dot blot)” value at Aβ1–42 [2] is “No binding”.

As to cathepsin G, the “Log binding (Aβ1–42)” value with Aβ1–42 [3] (Aβ1–42 0 nM (background)) was “• -0.884±0.103 • p = 0.0004”; in the test with Aβ1–42 [3] (Aβ1–42 3.47 nM) it was “• -0.368±0.157 • p<0.0001”; in the test with Aβ1–42 [3] (Aβ1–42 13.89 nM), “• 0.019±0.165 • p<0.0001”; with Aβ1–42 [3] (Aβ1–42 27.78 nM), “• 0.151±0.149 • p<0.0001”; in the test with Aβ1–42 [3] (Aβ1–42 55.56 nM) it was “• 0.310±0.125 • p<0.0001”. In the test with Aβ1–42 [3], the “maximum absorbance value for Aβ1–42 binding” value was determined as 3.54. Also, the “binding of RAGE (far-Western dot blot)” value with RAGE Fc chimera [1] was “not significantly higher than RAGE binding to BSA”. Besides, in the test with Aβ1–42 [2], the “binding of Aβ1–42 (far-Western dot blot)” value was “strong binding”. Also, in the test with RAGE Fc chimera [4], the “maximum absorbance value for RAGE binding” value is on record as 2.14. Besides, the “Log binding (RAGE)” value is -0.426 with RAGE Fc chimera [4] (RAGE 0 nM (background)), “• 0.101±0.084 • p<0.0001” in the test with RAGE Fc chimera [4] (RAGE 0.83 nM), “• 0.166±0.092 • p<0.0001” with RAGE Fc chimera [4] (RAGE 1.67 nM) and “• 0.192±0.096 • p<0.0001” with RAGE Fc chimera [4] (RAGE 3.33 nM).

Regarding neutrophil elastase, the “Log binding (Aβ1–42)” value is recorded as -1.061 with Aβ1–42 [3] (Aβ1–42 0 nM (background)); -0.961 with Aβ1–42 [3] (Aβ1–42 3.47 nM); “• -0.720±0.151 • p = 0.0064” with Aβ1–42 [3] (Aβ1–42 13.89 nM); “• -0.414±0.154 • p<0.0001” with Aβ1–42 [3] (Aβ1–42 27.78 nM); “• -0.146±0.153 • p<0.0001” in the test with Aβ1–42 [3] (Aβ1–42 55.56 nM); “• -0.890±0.127 • p = 0.0064” with Aβ1–42 [3] (Aβ1–42 […]). Besides, the “maximum absorbance value for Aβ1–42 binding” value with Aβ1–42 [3] is 5.89. Also, in the test with RAGE Fc chimera [1], the “binding of RAGE (far-Western dot blot)” value is reported as “did not detect visible binding”. Besides, the IC50 with Aβ1–42 binding to RAGE (read-out: IC50 for inhibition of Aβ1–42 binding to RAGE, Aβ1–42 11 nM added simultaneously with the protein to RAGE-coated wells, absence of protease inhibitors) was 4.85 nM. In addition, the “inhibition of Aβ1–42 binding to RAGE in the presence of protease inhibitors” value with Aβ1–42 binding to RAGE (with protease inhibitor cocktail, Aβ1–42 11 nM) is recorded as “No inhibition”. In addition, in the test with Aβ1–42 [2], the “binding of Aβ1–42 (far-Western dot blot)” value was “low binding”. In addition, in the test with RAGE Fc chimera [4], the “maximum absorbance value for RAGE binding” value stood at 1.11. Moreover, the “Log binding (RAGE)” value is -0.756 with RAGE Fc chimera [4] (RAGE 0 nM (background)), -0.376 with RAGE Fc chimera [4] (RAGE 0.83 nM), “• -0.274±0.113 • p = 0.046” in the test with RAGE Fc chimera [4] (RAGE 1.67 nM) and “• -0.121±0.104 • p = 0.003” with RAGE Fc chimera [4] (RAGE 3.33 nM). Moreover, the “maximum absorbance value for Aβ1–42 binding to RAGE” value in the test with RAGE Fc chimera [5] (Aβ1–42 pre-incubated with neutrophil elastase 2 μg/ml) is 0.15 OD 492 nm. Further, the equilibrium dissociation constant (Kd) in the test with RAGE Fc chimera [5] (read-out: KD value for Aβ1–42 binding to RAGE, Aβ1–42 pre-incubated overnight 4°C with neutrophil elastase 2 μg/ml (80 nM)) stood at 131 nM.
